Assay results taken from patent US20210363269A1 (ALX ONCOLOGY, published 2021).
Numbering of substitutions follows the chain as printed.

Assays:
human SIRPβ isoform 1 [1] = biological target: T1, human SIRPβ isoform 1 (human, UniProt O00241 30-148); assay: SPR
T1 construct: also called SIRPb; sirpb1
Summary of the method: (§1)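 Dissociation rate constants (koff) were measured on a ProteOn XPR36 instrument by Langmuir model fitting. Antibody clones in scFv-Fc format were captured from pre-filtered culture media onto a GLC chip with about 4000 RU of amine-coupled anti-human IgG Fc. SIRP analytes ran in PBS pH 7.4 with 0.01% Tween-20 at 25° C, and the model used was 1:1, applied to data double-referenced against interspot and buffer-blank responses.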

[2] = biological target: T2, human SIRP-α v2 D1 domain (human); assay: SPR
T2 construct: also called human v2
Summary of the method: as §1

[3] = biological target: T3, C57BL/6 mouse SIRP-α D1 domain (mouse (C57BL/6 strain), UniProt P97797 32-148); assay: SPR
T3 sequence: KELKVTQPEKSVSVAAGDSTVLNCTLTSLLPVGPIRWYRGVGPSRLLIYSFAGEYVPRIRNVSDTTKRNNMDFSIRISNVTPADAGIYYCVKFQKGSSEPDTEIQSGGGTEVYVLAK
Summary of the method: as §1

[4] = biological target: T4, high affinity SIRP-α D1 variant CV1-3; assay: SPR, Langmuir fit
T4 chain: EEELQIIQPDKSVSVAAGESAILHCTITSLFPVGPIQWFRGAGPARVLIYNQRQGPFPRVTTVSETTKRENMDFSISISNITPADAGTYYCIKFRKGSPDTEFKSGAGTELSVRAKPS
Summary of the method: as §1

[5] = biological target: T5, cynomolgus SIRP-α D1 domain (cyno1) (cynomolgus monkey, UniProt Q5TFQ8 30-148 (human entry), limits assumed); assay: SPR, Langmuir fit
T5 chain: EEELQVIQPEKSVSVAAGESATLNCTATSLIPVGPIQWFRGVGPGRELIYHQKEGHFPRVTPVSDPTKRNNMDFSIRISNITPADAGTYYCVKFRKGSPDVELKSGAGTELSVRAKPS
Summary of the method: as §1

[6] = biological target: T6, cynomolgus SIRP-α D1 domain (cyno2) (cynomolgus monkey, UniProt Q5TFQ8 30-148 (human entry), limits assumed); assay: SPR, Langmuir fit
T6 chain: T5 chain with E19D, A27V, T28S, V42A, H51N, Q52L, P62A
Summary of the method: as §1

[7] = biological target: T7, human SIRP-α v1 D1 domain (human, UniProt P78324 31-149); assay: SPR, Langmuir fit
T7 construct: also called human v1
Summary of the method: as §1

human SIRPγ isoform 1 [8] = biological target: T8, human SIRPγ isoform 1 (human, UniProt Q9P1W8 29-147); assay: SPR, captured scFv-Fc
T8 construct: also called sirpg; sirp-g
Summary of the method: as §1

[9] = biological target: T9, cynomolgus SIRP-α D1 domain (SEQ ID NO:11) (cynomolgus, UniProt Q5TFQ8 30-148 (human entry), limits assumed); assay: SPR, captured scFv-Fc
T9 construct: also called cyno1
T9 chain: T5 chain
Summary of the method: as §1

[10] = biological target: T10, C57BL/6 mouse SIRP-α D1 domain (mouse (C57BL/6 strain), UniProt P97797 32-148); assay: SPR, captured scFv-Fc
T10 sequence: T3 sequence
Summary of the method: as §1

[11] = biological target: T11, cynomolgus SIRP-α D1 domain (SEQ ID NO:12) (cynomolgus, UniProt Q5TFQ8 30-148 (human entry), limits assumed); assay: SPR, captured scFv-Fc
T11 construct: also called cyno2; Cyno2
T11 chain: T5 chain with E19D, A27V, T28S, V42A, H51N, Q52L, P62A
Summary of the method: as §1

[12] = biological target: T12, mouse 129 SIRP-α D1 domain (mouse (129 strain), UniProt P97797 32-150); assay: SPR, captured scFv-Fc
T12 construct: also called m129
T12 chain: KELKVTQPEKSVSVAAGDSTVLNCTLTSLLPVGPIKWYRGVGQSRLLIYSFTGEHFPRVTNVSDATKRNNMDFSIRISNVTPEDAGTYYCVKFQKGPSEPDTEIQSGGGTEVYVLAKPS
Summary of the method: as §1

[13] = biological target: T13, NOD mouse SIRP-α D1 domain (mouse (NOD strain)); assay: SPR, captured scFv-Fc
T13 chain: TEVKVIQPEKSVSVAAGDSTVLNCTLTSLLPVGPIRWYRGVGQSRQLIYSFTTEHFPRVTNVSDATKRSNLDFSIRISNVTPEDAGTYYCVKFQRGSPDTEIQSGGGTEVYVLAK
Summary of the method: as §1

[14] = biological target: T14, human SIRP-α v2 D1 domain (human); assay: SPR, captured scFv-Fc
T14 construct: also called human v2; human α v2
Summary of the method: as §1

human SIRPβ isoform 1 [15] = biological target: T15, human SIRPβ isoform 1 (human, UniProt O00241 30-148); assay: SPR, captured scFv-Fc
T15 construct: also called sirpb1; Sirpb1
Summary of the method: as §1

[16] = biological target: T5, cynomolgus SIRP-α D1 domain (cyno1); assay: SPR
Summary of the method: as §1

[17] = biological target: T16, NOD mouse SIRP-α D1 domain (mouse (NOD strain)); assay: SPR
T16 chain: T13 chain
Summary of the method: as §1

[18] = biological target: T6, cynomolgus SIRP-α D1 domain (cyno2); assay: SPR
Summary of the method: as §1

[19] = biological target: T17, mouse 129 SIRP-α D1 domain (mouse (129 strain), UniProt P97797 32-150); assay: SPR
T17 construct: also called m129
T17 chain: T12 chain
Summary of the method: as §1

human SIRP-α v1 [20] = biological target: T18, human SIRP-α v1 (human, UniProt P78324 31-149); assay: SPR Koff +/-
T18 construct: also called Human v1; Human V1
Summary of the method: (§2)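 Runs took place at 25° C in PBS pH 7.4 containing 0.01% Tween-20 on a ProteOn XPR36 biosensor, with purified antibodies either amine-coupled to a GLC chip or captured through biotinylated Protein A on an NLC chip. SIRP analytes went in by one-shot kinetic injection at nominal concentrations based on A280 absorbance. Apparent rate constants came from a global simple Langmuir fit of double-referenced data, and KD was calculated as kd/ka.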

human SIRPβ isoform 1 [21] = biological target: T19, human SIRPβ isoform 1 (human, UniProt O00241 30-148); assay: SPR Koff +/-
T19 construct: also called Beta; Human SIRPb
Summary of the method: as §2

human SIRP-α v1 [22] = biological target: T18, human SIRP-α v1; assay: SPR
Summary of the method: as §2

human SIRP-α v2 [23] = biological target: T20, human SIRP-α v2 (human); assay: SPR
T20 construct: also called Human v2; Human V2
Summary of the method: as §2

human SIRP-α v1 [24] = biological target: T18, human SIRP-α v1; assay: SPR, antibody on GLC chip
Summary of the method: (§3)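 On a ProteOn XPR36 biosensor, Protein A-purified antibodies were amine-coupled to a GLC chip at about ~1000 RU after dilution to 80 nM in 10 mM sodium acetate pH 4.5. SIRP analytes at 100, 33, 11, 3.7, 1.2 and 0 nM were then injected one-shot in PBS pH 7.4 containing 0.01% Tween-20 at 25° C, with 90 s of association at 100 μL/min and 1200 s of dissociation. The dissociation constant (KD) was calculated as kd/ka from a global Langmuir fit of double-referenced data.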

human SIRP-α v2 [25] = biological target: T20, human SIRP-α v2; assay: SPR, antibody on GLC chip
Summary of the method: as §3

human SIRPβ isoform 1 [26] = biological target: T19, human SIRPβ isoform 1; assay: SPR, antibody on GLC chip
Summary of the method: as §3

BALBc mouse SIRP-α = biological target: T21, BALBc mouse SIRP-α (mouse (BALB/c strain)); assay: SPR, antibody on GLC chip
T21 chain: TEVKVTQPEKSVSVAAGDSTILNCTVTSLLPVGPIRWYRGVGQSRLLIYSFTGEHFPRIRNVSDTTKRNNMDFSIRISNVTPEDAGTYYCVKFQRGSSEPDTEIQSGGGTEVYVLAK
Summary of the method: as §3

NOD mouse SIRP-α = biological target: T22, NOD mouse SIRP-α (mouse (NOD strain)); assay: SPR, antibody on GLC chip
T22 chain: T13 chain
Summary of the method: as §3

BL6 mouse SIRP-α = biological target: T23, BL6 mouse SIRP-α (mouse (C57BL/6 strain), UniProt P97797 32-148); assay: SPR, antibody on GLC chip
T23 construct: also called C57BL/6
T23 sequence: T3 sequence
Summary of the method: as §3

human SIRPγ isoform 1 [27] = biological target: T24, human SIRPγ isoform 1 (human, UniProt Q9P1W8 29-147); assay: SPR, antibody on GLC chip; fitted KD (M) in Table Q; weak binding, 23.9 nM
T24 construct: also called Gamma; Human SIRPg
Experimental: All experiments were performed at 25° C. using a SPR-based ProteOn XPR36 biosensor (BioRad, Inc, Hercules, Calif.) equipped with GLC or NLC sensor chips. […] Purification was carried out by standard Protein A affinity column chromatography and eluted antibodies were stored in PBS buffer.
For the method using GLC chip, the analytes were injected and flowed over anti-SIRPα antibodies immobilized (˜1000 RUs) on GLC chips using Proteon™ Amine Coupling Kit. For the immobilization step, GLC chip was activated with EDAC/Sulpho-NHS 1:1 (Biorad) diluted 1/100 for 300 s at 25 μL/min. Anti-SIRPα antibodies were diluted to 80 nM concentration in 10 mM sodium acetate buffer pH 4.5 and immobilized to the chip at 30 μL/min for 50 s. Chip was inactivated with ethanolamine for 300 s at 25 μL/min. The analytes (e.g., SIRP-α from different species, SIRP-β, SIRP-γ) were injected in a “one-shot” kinetic mode at nominal concentrations of 100, 33, 11, 3.7, 1.2 and 0 nM. Association times were monitored for 90 s at 100 μL/min, and dissociation times were monitored for 1200 s. The surfaces were regenerated with a 2:1 v/v blend of Pierce IgG elution buffer/4M NaCl.

T18 sequence (P78324 31-149 limits assumed): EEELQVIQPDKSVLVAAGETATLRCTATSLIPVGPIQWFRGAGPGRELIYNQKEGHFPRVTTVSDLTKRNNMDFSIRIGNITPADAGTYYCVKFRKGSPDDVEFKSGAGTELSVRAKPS
T20 sequence (chain, as listed by the source limits assumed): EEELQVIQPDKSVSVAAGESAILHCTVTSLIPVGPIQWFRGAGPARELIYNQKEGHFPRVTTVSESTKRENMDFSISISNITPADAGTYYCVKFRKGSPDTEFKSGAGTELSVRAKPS
T7 sequence (P78324 31-149 limits assumed): as the sequence (P78324 31-149 limits assumed) above

B1: S194 (scFv, V domains shown)
VH: DVQLVESGGGVVRPGESLRLSCAASGFTFRNYGMSWVRQAPGEGLEWVSASSGSGSTYYADSVKGRFTISRDNSKNTLYLQMNSLRAEDTAIYYCAKVTWNNFFDYWGLGTLVTVSS
VL: EIVLAQSPDTLSVSPGERATLTCRASQDVAGKLAWYQQKPGQAPRLLIHATSSRADGIPARFSGSGSGTEFTLTITGLQSEDFAVYYCQQHYDWSPLTFGGGTKVEIK
B1: no binding (tested: Koff > 5 × 10^3 (legend)) (human SIRPβ isoform 1 [1]); no binding (tested: Koff > 5 × 10^3 (legend)) [2]; no binding (tested: Koff > 5 × 10^3 (legend)) [3]. The koff [4] was 0.00111 s⁻¹, the koff [5] was 0.00131 s⁻¹ and the koff [6] was 0.00111 s⁻¹. The koff [7] was 0.00117 s⁻¹.

B2: S138 scFv-Fc (scFv)
scFv: EIVLTQSPGTLSVSPGERVILTCRASQSVDTYNLAWYQQKPGQAPRLLIYDLSTRATGIPDRFSGSGSGTEFTLTINSLEPEDFAVYYCHQYYDWPPYTFGGGTKVEIKGQSSRSSGGGGSSGGGGSDVQLVESGGGVVRPGESLRLSCAASGFTFSNYAMNWVRQAPGEGLEWVSGISGRGGDTYYADSVKGRFTISRDNSKNTLYLQMNSLRAEDTAIYYCAKGTWNYGSFDYWGLGTLVTVSSSLDPKSSDKTDTCPPCPAPELLGGPSVFLFPPKPKDTLMISRTPEVTCVVVDVSHEDPEVKFNWYVDGV
notes: scFv-Fc; Human framework
B2: no binding (tested: 100 nM) (human SIRPγ isoform 1 [8]); no binding (tested: 100 nM) [9]; no binding (tested: 100 nM) [10]. B2: no binding (tested: 100 nM) [11]; no binding (tested: 100 nM) [12]; no binding (tested: 100 nM) [13]. B2: no binding (tested: 100 nM) [14]; no binding (tested: 100 nM) (human SIRPβ isoform 1 [15]).

B3: S45 (scFv, V domains shown)
VH: AVTLDESGGGLQTPGGALSLVCKASGFTFSSYAMGWVRQAPGKGLEWVAGIDDDGSTANYGPAVKGRATISRDNGQSTVRLQLNNPRAEDSGTYFCAKASVTGWSAHISGRLDTWGHGTEVIVSS
VL: ALTQPASVSANPGETVKITCSGGGIYYYGWYQQKSPGSAPVTLIYENDKRPSDIPSRFSGSTSGSTNTFTITGVQAEDEAVYYCGGYDSNTTSGIFGAGTTLTVL
notes: also called clone 45; scFv-Fc form of AB45
B3: no binding (tested: Koff > 5 × 10^3 (legend)) [16]; no binding (tested: Koff > 5 × 10^3 (legend)) [17]; no binding (tested: Koff > 5 × 10^3 (legend)) [18]. For the same binder, the binding result [19] was “no binding (tested: Koff > 5 × 10^3 (legend))”, the binding result [3] was “no binding (tested: Koff > 5 × 10^3 (legend))” and the koff [4] was 4.76e-05 s⁻¹.

B4: antibody 214 (antibody, V domains shown)
VH: DVQLVESEGGVVRPGESLRLSCEASGFTFRNSYMTWVRQAPGEGLEWVSTISDTGDTAYYADSVKGRFTISRDNSKNSLYLQMNSLRAEDTAIYYCAKSWIWWTFFDYWGLGTLVTVSS
VL: ALTQPASVSANLGGTVEITCSGGNSNHYGWYQQKSPGSAPVTLIYADTNRPSNIPSRFSGSTSGSTSTLTITGVQAEDEAVYYCGGSSTGDGIFGAGTTLTVL
notes: also called S214
B4: no binding (human SIRP-α v1 [20]); no binding (human SIRPβ isoform 1 [21]).

B5: antibody 136 (antibody, V domains shown)
VH: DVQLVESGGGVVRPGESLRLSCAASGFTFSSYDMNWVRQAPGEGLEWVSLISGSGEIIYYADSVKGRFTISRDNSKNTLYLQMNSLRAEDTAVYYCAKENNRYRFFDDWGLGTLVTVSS
VL: ETVLTQSPGTLTLSPGERATLTCRASQSVYTYLAWYQEKPGQAPRLLIYGASSRATGIPDRFSGSGSGTEFTLTISSLQSEDFAVYYCQQYYDRPPLTFGGGTKVEIK
notes: also called AB136; S136
B5 was tested, and the Kd (human SIRP-α v1 [22]) was 0.458 nM, the Kd (human SIRP-α v2 [23]) was 3.22 nM and the Kd (human SIRP-α v1 [24]) was 0.458 nM. It also gave a Kd (human SIRP-α v2 [25]) of 1.63 nM, a Kd (human SIRPβ isoform 1 [26]) of 4.35 nM and a Kd (BALBc mouse SIRP-α) of 0.35 nM. It also gave a Kd (NOD mouse SIRP-α) of 0.554 nM, a Kd (BL6 mouse SIRP-α) of 12.7 nM and a Kd (human SIRPγ isoform 1 [27]) of 23.9 nM.
